Laboratory results published in publication PMC2714943 (Biochemistry, 2009).

Assays:
[1] = target: (+)-δ-cadinene synthase (DCS, isozyme XC1) (Gossypium arboreum, UniProt Q39761)
[2] = tested on: CC(C)=CCC/C(C)=C/CC/C(C)=C/CO[P@@](=O)(O)OP(=O)(O)O; experiment: purified protein; type: biochemical, Gossypium arboreum; settings: Mg2+

Chain of (+)-δ-cadinene synthase (DCS, isozyme XC1) (Q39761 whole entry): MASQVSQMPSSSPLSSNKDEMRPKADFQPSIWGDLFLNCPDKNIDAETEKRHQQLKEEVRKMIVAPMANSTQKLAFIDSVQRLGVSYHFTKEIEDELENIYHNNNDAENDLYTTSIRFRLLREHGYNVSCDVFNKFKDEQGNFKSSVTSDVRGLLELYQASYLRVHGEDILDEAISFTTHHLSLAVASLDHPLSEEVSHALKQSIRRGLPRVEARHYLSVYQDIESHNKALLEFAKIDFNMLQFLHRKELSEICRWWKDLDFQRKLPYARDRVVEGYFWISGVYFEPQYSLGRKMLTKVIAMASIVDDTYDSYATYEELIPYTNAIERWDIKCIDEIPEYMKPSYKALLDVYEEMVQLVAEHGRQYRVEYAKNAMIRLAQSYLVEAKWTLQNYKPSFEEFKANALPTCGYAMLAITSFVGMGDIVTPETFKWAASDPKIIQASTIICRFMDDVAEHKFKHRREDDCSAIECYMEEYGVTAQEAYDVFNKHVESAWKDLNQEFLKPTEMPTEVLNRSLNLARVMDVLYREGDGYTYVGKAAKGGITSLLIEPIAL

| Km [1] | Compound | Km [2] |
| --- | --- | --- |
| 3.2 ± 0.5 µM | CC(C)=CCC/C(C)=C/CC/C(C)=C/CO[P@@](=O)(O)OP(=O)(O)O [FPP] |  |
|  | (+)-δ-cadinene synthase (DCS, isozyme XC1) (Gossypium arboreum; D308A) | 43 ± 16 µM |
|  | (+)-δ-cadinene synthase (DCS, isozyme XC1) (Gossypium arboreum; D451A) | 2.4 ± 0.3 µM |
|  | (+)-δ-cadinene synthase (DCS, isozyme XC1) (Gossypium arboreum; D452A) | 3.1 ± 1.2 µM |
